Data: the supplement of paper PMC10065799, “High-throughput profiling of sequence recognition by tyrosine kinases and SH2 domains using bacterial peptide display” (eLife, 2023)

What was measured:
c-Abl (mouse) = assay: phosphorylation enrichment, bacterial display (enrichment ratio); higher = better substrate or ligand; peptides without Tyr show the background
MERTK = MERTK (UniProt Q12866); assay: as above
FGFR3 = FGFR3 (UniProt P22607); assay: as above
FGFR1 = FGFR1 (UniProt P11362); assay: as above
c-Src = assay: as above
Fyn = Fyn (UniProt P06241); assay: as above
Jak2 = Jak2 (UniProt O60674); assay: as above
Hck = Hck (UniProt P08631); assay: as above
Fer (mouse) = assay: as above
AncSZ = assay: as above
EPHB2 = EPHB2 (UniProt P29323); assay: as above
EPHB1 = EPHB1 (UniProt P54762); assay: as above
Fes = Fes (UniProt P07332); assay: as above
SHP2-C SH2 = assay: SH2 binding enrichment of the phosphorylated peptide, bacterial display (enrichment ratio); higher = better substrate or ligand; peptides without Tyr show the background
Grb2 SH2 = Grb2 SH2 (UniProt P62993); assay: as above
c-Src SH2 = assay: as above
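Throughout, for SH2 binding enrichment of the phosphorylated peptide, bacterial display: peptide library displayed on the E. coli surface as eCPX fusions, selected cells deep-sequenced, score is each peptide's frequency after selection divided by its frequency in the input.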
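Throughout, for phosphorylation enrichment, bacterial display: 11-residue human phosphosite peptides and single-mutation variants displayed on the E. coli surface, counted by deep sequencing, each peptide's frequency after selection divided by its frequency in the unselected input library; frequency after pTyr selection over input frequency; kinase dosed for 20-30% of maximal phosphorylation in three min.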

Grb2 SH2, sequence (P62993 whole entry, looked up): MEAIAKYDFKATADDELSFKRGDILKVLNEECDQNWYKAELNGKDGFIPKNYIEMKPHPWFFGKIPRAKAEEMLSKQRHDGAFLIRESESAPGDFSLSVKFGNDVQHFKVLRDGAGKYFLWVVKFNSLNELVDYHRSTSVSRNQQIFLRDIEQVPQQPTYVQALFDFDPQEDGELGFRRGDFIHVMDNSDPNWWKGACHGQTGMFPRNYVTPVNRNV
Jak2, sequence (O60674 whole entry, looked up): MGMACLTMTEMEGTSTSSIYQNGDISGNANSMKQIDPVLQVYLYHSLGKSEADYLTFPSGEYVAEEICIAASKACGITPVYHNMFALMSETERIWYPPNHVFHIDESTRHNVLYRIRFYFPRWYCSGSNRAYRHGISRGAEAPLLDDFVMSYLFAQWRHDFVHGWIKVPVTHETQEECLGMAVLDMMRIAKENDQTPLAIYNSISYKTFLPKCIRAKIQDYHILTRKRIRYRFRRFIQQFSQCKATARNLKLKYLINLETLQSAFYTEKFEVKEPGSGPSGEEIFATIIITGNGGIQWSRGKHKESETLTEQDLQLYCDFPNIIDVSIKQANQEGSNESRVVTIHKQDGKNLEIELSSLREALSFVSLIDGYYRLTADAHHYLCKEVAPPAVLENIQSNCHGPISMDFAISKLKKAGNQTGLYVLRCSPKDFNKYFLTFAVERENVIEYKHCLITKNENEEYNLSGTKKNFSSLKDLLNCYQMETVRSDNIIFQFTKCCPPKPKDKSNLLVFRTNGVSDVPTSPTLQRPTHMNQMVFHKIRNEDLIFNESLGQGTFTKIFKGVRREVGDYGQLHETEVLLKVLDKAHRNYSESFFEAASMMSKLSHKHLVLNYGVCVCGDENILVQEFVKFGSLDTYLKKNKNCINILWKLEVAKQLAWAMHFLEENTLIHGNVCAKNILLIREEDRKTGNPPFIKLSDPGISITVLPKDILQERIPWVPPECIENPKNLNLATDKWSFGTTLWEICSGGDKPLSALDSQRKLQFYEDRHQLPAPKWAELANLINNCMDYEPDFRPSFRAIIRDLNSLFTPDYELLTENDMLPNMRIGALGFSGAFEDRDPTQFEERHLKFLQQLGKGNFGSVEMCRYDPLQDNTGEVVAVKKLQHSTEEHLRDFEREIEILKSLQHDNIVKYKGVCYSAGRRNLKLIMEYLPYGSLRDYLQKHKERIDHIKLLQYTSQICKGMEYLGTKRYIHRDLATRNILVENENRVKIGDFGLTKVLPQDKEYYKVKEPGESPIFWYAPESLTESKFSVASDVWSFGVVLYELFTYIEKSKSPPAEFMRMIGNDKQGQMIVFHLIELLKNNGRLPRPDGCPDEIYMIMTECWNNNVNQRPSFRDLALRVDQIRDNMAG
Fyn, sequence (P06241 whole entry, looked up): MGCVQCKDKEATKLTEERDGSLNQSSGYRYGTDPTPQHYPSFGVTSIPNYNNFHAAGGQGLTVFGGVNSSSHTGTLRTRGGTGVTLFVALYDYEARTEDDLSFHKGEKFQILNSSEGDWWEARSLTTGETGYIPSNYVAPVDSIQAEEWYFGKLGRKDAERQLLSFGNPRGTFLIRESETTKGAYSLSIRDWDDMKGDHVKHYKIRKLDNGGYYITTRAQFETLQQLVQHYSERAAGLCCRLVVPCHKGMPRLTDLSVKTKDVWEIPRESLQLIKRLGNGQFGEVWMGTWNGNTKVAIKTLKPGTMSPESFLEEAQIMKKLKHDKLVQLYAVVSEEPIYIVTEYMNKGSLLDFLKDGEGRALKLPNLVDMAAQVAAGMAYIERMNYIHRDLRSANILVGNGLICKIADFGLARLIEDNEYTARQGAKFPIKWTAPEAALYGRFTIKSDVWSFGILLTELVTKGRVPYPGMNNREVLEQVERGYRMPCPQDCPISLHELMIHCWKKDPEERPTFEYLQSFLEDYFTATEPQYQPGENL
MERTK, sequence (Q12866 whole entry, looked up): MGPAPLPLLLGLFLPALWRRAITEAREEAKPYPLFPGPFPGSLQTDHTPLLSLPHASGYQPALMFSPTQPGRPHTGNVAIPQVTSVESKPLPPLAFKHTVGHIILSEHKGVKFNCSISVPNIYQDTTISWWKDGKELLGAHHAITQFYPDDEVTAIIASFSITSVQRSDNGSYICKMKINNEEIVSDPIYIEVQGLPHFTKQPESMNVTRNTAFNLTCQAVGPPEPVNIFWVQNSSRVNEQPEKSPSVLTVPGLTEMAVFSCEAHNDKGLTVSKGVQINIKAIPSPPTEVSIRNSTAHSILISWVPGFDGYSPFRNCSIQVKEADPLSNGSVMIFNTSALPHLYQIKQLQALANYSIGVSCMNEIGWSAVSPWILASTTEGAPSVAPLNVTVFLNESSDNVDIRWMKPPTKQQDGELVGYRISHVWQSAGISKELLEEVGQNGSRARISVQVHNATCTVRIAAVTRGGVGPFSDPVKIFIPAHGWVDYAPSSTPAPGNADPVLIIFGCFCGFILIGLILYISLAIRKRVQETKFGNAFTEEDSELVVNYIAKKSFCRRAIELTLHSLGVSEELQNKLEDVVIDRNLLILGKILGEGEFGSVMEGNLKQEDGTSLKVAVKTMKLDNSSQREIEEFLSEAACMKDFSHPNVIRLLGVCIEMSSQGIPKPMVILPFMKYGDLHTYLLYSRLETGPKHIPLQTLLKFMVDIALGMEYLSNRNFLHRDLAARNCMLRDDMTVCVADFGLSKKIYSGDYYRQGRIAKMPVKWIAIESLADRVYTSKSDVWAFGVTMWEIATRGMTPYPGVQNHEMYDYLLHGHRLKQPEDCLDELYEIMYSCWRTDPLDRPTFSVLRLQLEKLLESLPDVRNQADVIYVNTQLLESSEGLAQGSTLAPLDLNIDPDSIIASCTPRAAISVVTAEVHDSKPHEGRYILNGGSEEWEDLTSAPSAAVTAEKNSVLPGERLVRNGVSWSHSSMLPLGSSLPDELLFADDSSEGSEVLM
FGFR3, sequence (P22607 whole entry, looked up): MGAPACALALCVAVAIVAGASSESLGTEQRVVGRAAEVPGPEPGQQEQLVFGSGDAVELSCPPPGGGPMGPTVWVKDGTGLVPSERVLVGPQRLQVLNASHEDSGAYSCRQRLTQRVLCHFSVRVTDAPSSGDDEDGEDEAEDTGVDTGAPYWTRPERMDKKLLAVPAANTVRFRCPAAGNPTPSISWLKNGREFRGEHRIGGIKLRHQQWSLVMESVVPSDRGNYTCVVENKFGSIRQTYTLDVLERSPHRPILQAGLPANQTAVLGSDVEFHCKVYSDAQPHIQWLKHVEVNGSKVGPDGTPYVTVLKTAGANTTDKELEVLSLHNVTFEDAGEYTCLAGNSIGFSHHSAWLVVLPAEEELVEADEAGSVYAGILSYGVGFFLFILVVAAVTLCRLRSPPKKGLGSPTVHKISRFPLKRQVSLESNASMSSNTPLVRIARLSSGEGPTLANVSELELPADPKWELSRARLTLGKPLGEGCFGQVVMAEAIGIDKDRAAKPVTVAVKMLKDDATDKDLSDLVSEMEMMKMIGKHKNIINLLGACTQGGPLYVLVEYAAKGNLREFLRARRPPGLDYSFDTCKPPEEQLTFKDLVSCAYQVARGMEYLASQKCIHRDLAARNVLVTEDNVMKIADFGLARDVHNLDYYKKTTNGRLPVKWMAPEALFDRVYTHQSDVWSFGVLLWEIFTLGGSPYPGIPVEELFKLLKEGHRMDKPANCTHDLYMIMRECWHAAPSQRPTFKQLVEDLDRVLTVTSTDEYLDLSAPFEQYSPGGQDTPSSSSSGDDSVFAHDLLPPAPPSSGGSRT
EPHB2, sequence (P29323 whole entry, looked up): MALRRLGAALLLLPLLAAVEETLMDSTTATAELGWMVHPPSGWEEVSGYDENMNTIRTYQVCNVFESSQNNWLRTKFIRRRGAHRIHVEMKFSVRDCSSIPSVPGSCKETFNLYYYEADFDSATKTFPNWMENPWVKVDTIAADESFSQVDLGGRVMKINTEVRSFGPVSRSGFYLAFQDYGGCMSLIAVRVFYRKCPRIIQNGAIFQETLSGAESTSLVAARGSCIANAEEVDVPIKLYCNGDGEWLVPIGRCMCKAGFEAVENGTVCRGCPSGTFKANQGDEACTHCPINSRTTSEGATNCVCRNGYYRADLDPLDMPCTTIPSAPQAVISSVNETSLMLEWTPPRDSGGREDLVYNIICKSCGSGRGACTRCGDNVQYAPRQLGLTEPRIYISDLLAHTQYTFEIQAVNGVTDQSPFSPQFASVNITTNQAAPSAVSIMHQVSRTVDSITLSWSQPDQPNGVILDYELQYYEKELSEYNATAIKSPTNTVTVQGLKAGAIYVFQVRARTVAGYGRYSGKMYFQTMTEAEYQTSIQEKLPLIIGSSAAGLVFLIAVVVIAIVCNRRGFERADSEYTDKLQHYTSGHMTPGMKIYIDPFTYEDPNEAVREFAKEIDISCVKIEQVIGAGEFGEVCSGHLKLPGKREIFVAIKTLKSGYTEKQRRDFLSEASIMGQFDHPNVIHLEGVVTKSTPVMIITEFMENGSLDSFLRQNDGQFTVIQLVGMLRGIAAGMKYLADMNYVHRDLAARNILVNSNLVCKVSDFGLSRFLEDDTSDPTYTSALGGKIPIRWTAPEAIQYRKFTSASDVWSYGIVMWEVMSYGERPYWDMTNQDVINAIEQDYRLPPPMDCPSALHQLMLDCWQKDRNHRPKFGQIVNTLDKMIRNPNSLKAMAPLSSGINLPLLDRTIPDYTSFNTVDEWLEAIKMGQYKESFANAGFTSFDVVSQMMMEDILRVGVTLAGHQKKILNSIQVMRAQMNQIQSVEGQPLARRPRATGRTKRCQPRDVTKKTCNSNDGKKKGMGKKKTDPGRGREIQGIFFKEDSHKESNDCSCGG

Sequence	phosphorylation enrichment (c-Abl (mouse))	phosphorylation enrichment (MERTK)	phosphorylation enrichment (FGFR3)	phosphorylation enrichment (FGFR1)	phosphorylation enrichment (c-Src)	phosphorylation enrichment (Fyn)	phosphorylation enrichment (Jak2)	phosphorylation enrichment (Hck)	phosphorylation enrichment (Fer (mouse))	phosphorylation enrichment (AncSZ)	phosphorylation enrichment (EPHB2)	phosphorylation enrichment (EPHB1)	phosphorylation enrichment (Fes)	SH2 binding enrichment (SHP2-C SH2)	SH2 binding enrichment (Grb2 SH2)	SH2 binding enrichment (c-Src SH2)
IITVHYVLEES [RYR2_Y4559_A4556T]	0.794	0.498	0.831	0.594	0.523	0.53	1.02	0.517	0.579	1.17	0.577	0.777	1.22	1.56	1.45	1.37
IKIMGSSIRTI [IDS_Y490_Y490S]	0.526	0.424	0.45	0.502	0.414	0.411	0.492	0.435	0.387	0.557	0.393	0.436	0.53	0.717	0.836	0.533
IKKFKYRIEEH [GJA1_Y137_G138R]	0.449	0.345	0.495	0.402	0.363	0.398	0.717	0.336	0.361	0.653	0.389	0.392	0.83	0.77	0.847	0.557
IKRIDYEFVEM [ADA_Y84_A83D]	0.622	0.375	0.742	1.02	0.404	0.469	0.932	0.477	1.82	0.89	3.22	6.08	1.18	0.56	0.967	0.5
ILDEAYVMASV [EGFR_Y764]	0.692	0.409	0.763	0.641	0.612	0.505	1.07	0.515	0.538	1.16	0.559	0.598	1.33	0.632	0.708	0.356
ILGRTYFVNHE [NEDD4_Y627_YF]	0.735	0.355	0.605	0.43	0.467	0.392	0.758	0.379	0.429	0.83	0.398	0.526	0.854	0.656	0.865	0.463
ILLAGYLVMVI [SLC28A3_Y113]	0.748	0.498	0.783	0.58	0.442	0.572	1.06	0.525	0.613	1.35	0.652	0.681	1.38	0.781	0.729	0.502
IMAYFYMCDRA [CASD1_Y382]	1	0.494	1.23	1.09	0.487	0.421	1.46	0.401	0.614	1.11	0.641	0.803	1.45	1.02	1.14	0.87
INMKEYCKKDY [NTN1_Y490_K489E]	0.661	0.364	0.595	0.447	0.429	0.451	1.29	0.477	0.615	0.824	0.462	0.461	0.944	0.501	0.723	0.498
IPVNGYQPVPA [ROR2_Y824_V819I]	0.592	0.899	0.523	0.36	0.472	0.429	0.533	0.513	0.337	0.582	0.467	0.385	0.633	0.692	0.934	0.756
IQKKYYRAILE [CHD7_Y1218]	0.468	0.341	0.485	0.424	0.324	0.407	0.563	0.432	0.384	0.649	0.586	0.396	0.761	0.636	0.976	0.637
IRKKFYRAILE [CHD7_Y1218_Q1214R_YF]	0.568	0.618	0.444	0.426	0.658	0.57	0.797	0.455	0.42	0.569	0.58	0.386	0.62	0.458	0.619	0.433
ISHVAYRVLGK [TRRAP_Y892]	0.477	0.34	0.402	0.423	0.416	0.394	0.426	0.348	0.338	0.634	0.365	0.31	0.597	0.732	0.775	0.488
ISMAGYSIPEL [EDAR_Y406_T403M]	1.15	0.573	0.54	0.494	0.508	0.448	0.68	0.437	0.455	0.647	0.553	0.395	0.787	0.861	0.827	10.4
ISSLCYELLEE [TRPC6_Y896_R895C]	1.13	0.777	1.23	0.748	0.928	0.597	1.36	0.747	0.924	2.07	0.654	0.986	1.66	0.769	0.843	0.701
ISSLRYELLEE [TRPC6_Y896]	0.621	0.533	0.764	0.52	0.397	0.511	0.832	0.597	0.544	1.24	0.573	0.63	1.17	0.754	0.832	6.86
IVAREYFSDAD [CAMK2A_Y106_E109D_YF]	0.8	0.378	0.583	0.461	0.438	0.378	0.793	0.415	0.418	0.744	0.491	0.48	0.922	0.589	0.8	0.467

Sequence	phosphorylation enrichment (c-Abl (mouse))	phosphorylation enrichment (MERTK)	phosphorylation enrichment (FGFR3)	phosphorylation enrichment (FGFR1)	phosphorylation enrichment (c-Src)	phosphorylation enrichment (Fyn)	phosphorylation enrichment (Jak2)	phosphorylation enrichment (Hck)	phosphorylation enrichment (Fer (mouse))	phosphorylation enrichment (AncSZ)	phosphorylation enrichment (EPHB2)	phosphorylation enrichment (EPHB1)	phosphorylation enrichment (Fes)	SH2 binding enrichment (SHP2-C SH2)	SH2 binding enrichment (Grb2 SH2)	SH2 binding enrichment (c-Src SH2)
IVAREYYSDAD [CAMK2A_Y106_E109D]	0.828	0.41	0.633	0.657	0.559	0.473	0.959	0.525	0.589	1.04	0.647	0.775	1.13	0.833	0.869	3.1
IVAREYYSKAD [CAMK2B_Y107_E110K]	0.639	0.425	0.504	0.43	0.525	0.423	0.697	0.507	0.405	0.768	0.602	0.467	0.85	0.749	0.75	2.01
IVEYAYNDKAI [PUM3_Y259]	0.859	0.397	0.702	0.501	0.474	0.505	1.15	0.539	0.631	1.28	0.69	0.705	1.27	0.656	0.761	0.571
IVFTSYVLTIL [TAS2R16_Y239_F240V]	1.05	0.526	1.17	0.71	0.55	0.667	1.55	0.623	0.731	1.41	0.794	0.884	1.73	0.641	1.04	0.806
IVVVPYEPPEV [TP53_Y220_S215I]	0.733	0.448	0.665	0.511	0.386	0.43	0.882	0.48	0.554	1.01	0.544	0.636	1.08	0.763	0.835	0.811
IVWDSYTTNKV [GNB3_Y85]	0.718	0.307	0.635	0.501	0.359	0.546	0.895	0.528	0.519	1	0.559	0.675	1.2	0.887	0.966	0.585
IWGKKYPTCNS [PTPRZ1_Y53_N48I]	0.628	0.407	0.607	0.432	0.397	0.369	0.667	0.406	0.518	0.697	0.491	0.441	0.776	0.89	1.2	0.846
IYLADYRIMEG [ALOX12B_Y318]	0.978	3.75	2.46	2.63	1.16	0.738	1.03	0.812	0.48	1.14	1.07	1.26	1.1	1.1	0.982	0.719
KAIMTYVFSFF [ACTN4_Y260_S262F_YF]	0.526	0.431	0.725	0.443	0.425	0.464	0.698	0.502	0.454	0.989	0.461	0.553	0.945	1.19	1.26	0.888
KDHPDYKYQPR [SOX10_Y171]	0.687	0.387	0.481	0.492	0.412	0.458	0.509	0.463	0.435	0.668	0.381	0.362	0.595	0.77	1.04	0.619
KELANYFKLHH [AK7_Y390_YF]	0.439	0.545	0.83	1.15	0.481	0.567	1.68	0.486	0.442	0.644	0.537	0.727	0.877	0.949	0.945	0.516
KELAPYDENRF [RPS19_Y48_W52R]	0.983	0.5	0.79	0.48	0.577	0.485	1.05	0.512	0.579	1.05	0.553	0.594	1.36	1.39	0.896	0.605
KIITDYFVDMK [MPP4_Y566_V562I_YF]	0.644	0.37	0.783	0.732	0.529	0.513	1.14	0.479	0.456	1.05	0.566	0.575	1.15	0.571	0.83	0.526
KILGRYFETGS [PAX2_Y72_YF]	0.563	0.375	0.496	0.459	0.413	0.408	0.759	0.397	0.464	0.575	0.467	0.414	0.656	0.845	0.9	0.438
KKHFSYAWPFY [BRDT_Y291]	0.493	1.22	0.564	0.495	0.375	0.456	0.647	0.425	0.385	1	0.428	0.622	0.965	1.46	1.73	1.52
KKLAEYGPQGK [CLCA1_Y147_R152K]	0.427	0.273	0.295	0.369	0.348	0.401	0.366	0.401	0.326	0.361	0.324	0.334	0.498	0.609	0.769	0.491
